The values that follow come from US20190106510A1 (CELLDEX THERAPEUTICS, published 2019).

In experiment [1] the target is T1, recombinant KIT D4/D5 (human, UniProt P10721 26-519).
T1 construct: also called recombinant c-Kit Ig-like domains D4/D5; recombinant polypeptide of the D4/D5 region of human KIT
Nature of the experiment: direct binding ELISA, plate-coated recombinant KIT D4/D5; assay #2 (supernatant). The protocol:
(§1) The binding affinity of the anti-KIT antibodies to the target antigen KIT Ig-like domains D4/D5 was assessed by direct binding ELISA. […] Bound antibody was detected with anti-human Ig-HRP followed by detection using TMB substrate.

In experiment [2] the target is T1, recombinant KIT D4/D5. The experiment in a line: direct binding ELISA, plate-coated recombinant KIT D4/D5; assay #1 (supernatant). The protocol: as §1
Background: ELISA stands for enzyme-linked immunosorbent assay.

Experiment [3] addresses full-length, wild-type human KIT expressed on CHO cells (human, UniProt P10721 26-976). Nature of the experiment: cell-based or functional assay.
The target in experiment [4] is T1, recombinant KIT D4/D5. Nature of the experiment: direct binding ELISA, plate-coated recombinant KIT D4/D5; assay #3 (purified). On the procedure:
as §1

T1 sequence (P10721 other isoform, or with tags, fused parts or gaps limits assumed): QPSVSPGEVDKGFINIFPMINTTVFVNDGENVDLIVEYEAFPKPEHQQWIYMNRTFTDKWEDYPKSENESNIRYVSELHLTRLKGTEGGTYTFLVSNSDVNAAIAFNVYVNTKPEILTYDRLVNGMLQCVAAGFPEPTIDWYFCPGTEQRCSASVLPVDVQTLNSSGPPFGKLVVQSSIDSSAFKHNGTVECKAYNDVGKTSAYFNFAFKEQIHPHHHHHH
Sequence of full-length, wild-type human KIT expressed on CHO cells (P10721 other isoform, or with tags, fused parts or gaps limits assumed): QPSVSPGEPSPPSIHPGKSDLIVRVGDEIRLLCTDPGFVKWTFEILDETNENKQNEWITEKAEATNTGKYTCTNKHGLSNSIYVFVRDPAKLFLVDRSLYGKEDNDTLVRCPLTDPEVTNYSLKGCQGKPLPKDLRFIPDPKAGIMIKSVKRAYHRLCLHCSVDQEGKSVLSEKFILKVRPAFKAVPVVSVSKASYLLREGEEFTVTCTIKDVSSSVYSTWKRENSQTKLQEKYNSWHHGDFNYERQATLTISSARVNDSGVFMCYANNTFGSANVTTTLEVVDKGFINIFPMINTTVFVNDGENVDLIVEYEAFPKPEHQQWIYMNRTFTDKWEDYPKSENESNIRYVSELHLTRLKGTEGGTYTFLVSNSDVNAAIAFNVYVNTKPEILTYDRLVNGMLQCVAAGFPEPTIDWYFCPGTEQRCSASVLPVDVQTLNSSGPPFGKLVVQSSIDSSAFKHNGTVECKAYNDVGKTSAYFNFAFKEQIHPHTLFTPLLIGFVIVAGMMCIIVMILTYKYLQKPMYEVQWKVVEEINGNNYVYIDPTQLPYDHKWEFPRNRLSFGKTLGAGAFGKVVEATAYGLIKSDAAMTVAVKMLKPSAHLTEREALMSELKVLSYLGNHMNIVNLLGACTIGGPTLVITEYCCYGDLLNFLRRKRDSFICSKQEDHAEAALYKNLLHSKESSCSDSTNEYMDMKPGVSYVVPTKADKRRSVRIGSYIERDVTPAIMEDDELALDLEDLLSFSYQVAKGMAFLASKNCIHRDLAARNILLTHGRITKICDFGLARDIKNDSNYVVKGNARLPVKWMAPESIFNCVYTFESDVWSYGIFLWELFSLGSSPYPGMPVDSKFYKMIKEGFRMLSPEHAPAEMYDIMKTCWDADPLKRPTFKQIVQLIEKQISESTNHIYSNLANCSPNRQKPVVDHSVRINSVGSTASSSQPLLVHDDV

B1: Hum1 (antibody, V domains shown)
VH: QVQLVQSGAELKKPGASVKLSCKASGYTFTDYYINWVKQAPGKGLEWIARIYPGSGNTYYNEKFKGRATLTAEKSTSTAYMQLSSLRSEDSAVYFCARGVYYFDYWGQGTTVTVSS
VL: DIVMTQSPSFLSASVGDRVTITCKASQNVRTNVAWYQQKPGKAPKALIYSASYRYSGVPDRFTGSGSGTDFTLTISSLQSEDFADYFCQQYNSYPRTFGGGTKVEIK
notes: Variable regions cloned into expression vectors for human IgG1 VH chains and human V kappa chains
B1: the Relative binding activity in experiment [1] was 0.64 relative to chimeric antibody 37C (normalized EC50).

B2: Hum11 (antibody, V domains shown)
VH: QVQLVQSGAELKKPGASVKLSCKASGYTFTDYYINWVKQAPGKGLEWIARIYPGSGNTYYNEKFKGRATLTAEKSTSTAYMQLSSLRSEDSAVYFCARGVYYFDYWGQGTTVTVSS
VL: DIVMTQSPSSLSASVGDRVTITCKASQNVRTNVAWYQQKPGKAPKALIYSASYRYSGVPDRFSGSGSGTDFTLTISSLQPEDFADYFCQQYNSYPRTFGGGTKVEIK
With B2, the Relative binding activity in experiment [1] is 0.74 relative to chimeric antibody 37C (normalized EC50).

B3: Hum20 (antibody, V domains shown)
VH: QVQLVQSGAEVKKPGASVKVSCKASGYTFTDYYINWVRQAPGKGLEWIARIYPGSGNTYYNEKFKGRVTITADKSTSTAYMELSSLRSEDTAVYFCARGVYYFDYWGQGTTVTVSS
VL: DIVMTQSPSSLSASVGDRVTITCKASQNVRTNVAWYQQKPGKAPKSLIYSASYRYSGVPDRFSGSGSGTDFTLTISSLQPEDFATYYCQQYNSYPRTFGGGTKVEIK
As to B3, the figures for the Relative binding activity in experiment [1] and in experiment [2] were 0.7 relative to chimeric antibody 37C (normalized EC50) and 0.8 relative to chimeric antibody 37C (normalized EC50), respectively.

B4: Hum14 (antibody, V domains shown)
VH: QVQLVQSGAEVKKPGASVKVSCKASGYTFTDYYINWVRQAPGKGLEWIARIYPGSGNTYYNEKFKGRATITADKSTSTAYMELSSLRSEDTAVYFCARGVYYFDYWGQGTTVTVSS
VL: DIVMTQSPSSLSASVGDRVTITCKASQNVRTNVAWYQQKPGKAPKALIYSASYRYSGVPDRFSGSGSGTDFTLTISSLQPEDFADYFCQQYNSYPRTFGGGTKVEIK
For the molecule B4, the “Relative blocking activity, assay #2 (24-well): IC50 of inhibition of SCF-induced KIT phosphorylation, normalized to chimeric 37M antibody” value in experiment [3] was 0.94 relative to chimeric 37M antibody. Further, the Relative binding activity in experiment [1] is 1.03 relative to chimeric antibody 37C (normalized EC50); in experiment [4], 0.74 relative to chimeric antibody 37C (normalized EC50); in experiment [2], 1.14 relative to chimeric antibody 37C (normalized EC50).

B5: Hum7 (antibody, V domains shown)
VH: QVQLVQSGAEVKKPGASVKLSCKASGYTFTDYYINWVKQAPGKGLEWIARIYPGSGNTYYNEKFKGRATLTAEKSTSTAYMQLSSLRSEDTAVYFCARGVYYFDYWGQGTTVTVSS
VL: DIVMTQSPSSLSASVGDRVTITCKASQNVRTNVAWYQQKPGKAPKALIYSASYRYSGVPDRFTGSGSGTDFTLTISSLQPEDFADYFCQQYNSYPRTFGGGTKVEIK
With B5, the values for the Relative binding activity in experiment [1] and in experiment [2] were 0.8 relative to chimeric antibody 37C (normalized EC50) and 1.12 relative to chimeric antibody 37C (normalized EC50), respectively.

B6: Hum3 (antibody, V domains shown)
VH: QVQLVQSGAEVKKPGASVKLSCKASGYTFTDYYINWVRQAPGKGLEWIARIYPGSGNTYYNEKFKGRATLTADKSTSTAYMQLSSLRSEDTAVYFCARGVYYFDYWGQGTTVTVSS
VL: DIVMTQSPSFLSASVGDRVTITCKASQNVRTNVAWYQQKPGKAPKALIYSASYRYSGVPDRFTGSGSGTDFTLTISSLQSEDFADYFCQQYNSYPRTFGGGTKVEIK
Take B6: in experiment [1], the Relative binding activity was 0.88 relative to chimeric antibody 37C (normalized EC50).

B7: Hum2 (antibody, V domains shown)
VH: QVQLVQSGAEVKKPGASVKLSCKASGYTFTDYYINWVKQAPGKGLEWIARIYPGSGNTYYNEKFKGRATLTAEKSTSTAYMQLSSLRSEDTAVYFCARGVYYFDYWGQGTTVTVSS
VL: DIVMTQSPSFLSASVGDRVTITCKASQNVRTNVAWYQQKPGKAPKALIYSASYRYSGVPDRFTGSGSGTDFTLTISSLQSEDFADYFCQQYNSYPRTFGGGTKVEIK
Take B7: the Relative binding activity in experiment [1] is 0.79 relative to chimeric antibody 37C (normalized EC50).

B8: Hum16 (antibody, V domains shown)
VH: QVQLVQSGAELKKPGASVKLSCKASGYTFTDYYINWVKQAPGKGLEWIARIYPGSGNTYYNEKFKGRATLTAEKSTSTAYMQLSSLRSEDSAVYFCARGVYYFDYWGQGTTVTVSS
VL: DIVMTQSPSSLSASVGDRVTITCKASQNVRTNVAWYQQKPGKAPKSLIYSASYRYSGVPDRFSGSGSGTDFTLTISSLQPEDFATYYCQQYNSYPRTFGGGTKVEIK
With B8, the results for the Relative binding activity in experiment [1] and in experiment [2] were 1.02 relative to chimeric antibody 37C (normalized EC50) and 1.2 relative to chimeric antibody 37C (normalized EC50), respectively.

B9: Hum9 (antibody, V domains shown)
VH: QVQLVQSGAEVKKPGASVKVSCKASGYTFTDYYINWVRQAPGKGLEWIARIYPGSGNTYYNEKFKGRATITADKSTSTAYMELSSLRSEDTAVYFCARGVYYFDYWGQGTTVTVSS
VL: DIVMTQSPSSLSASVGDRVTITCKASQNVRTNVAWYQQKPGKAPKALIYSASYRYSGVPDRFTGSGSGTDFTLTISSLQPEDFADYFCQQYNSYPRTFGGGTKVEIK
Consider B9, for which, in experiment [3], the “Relative blocking activity, assay #3 (96-well): IC50 of inhibition of SCF-induced KIT phosphorylation, normalized to chimeric 37M antibody” value is 1.05 relative to chimeric 37M antibody. Besides, the Relative binding activity in experiment [1] was 1 relative to chimeric antibody 37C (normalized EC50); in experiment [4], 0.85 relative to chimeric antibody 37C (normalized EC50); in experiment [2], 1.08 relative to chimeric antibody 37C (normalized EC50).

B10: Hum13 (antibody, V domains shown)
VH: QVQLVQSGAEVKKPGASVKLSCKASGYTFTDYYINWVRQAPGKGLEWIARIYPGSGNTYYNEKFKGRATLTADKSTSTAYMQLSSLRSEDTAVYFCARGVYYFDYWGQGTTVTVSS
VL: DIVMTQSPSSLSASVGDRVTITCKASQNVRTNVAWYQQKPGKAPKALIYSASYRYSGVPDRFSGSGSGTDFTLTISSLQPEDFADYFCQQYNSYPRTFGGGTKVEIK
As for B10, the “Relative blocking activity, assay #3 (96-well): IC50 of inhibition of SCF-induced KIT phosphorylation, normalized to chimeric 37M antibody” value in experiment [3] is 1 relative to chimeric 37M antibody. Besides, the Relative binding activity was 0.78 relative to chimeric antibody 37C (normalized EC50) in experiment [1] and 1.11 relative to chimeric antibody 37C (normalized EC50) in experiment [2].

B11: Hum6 (antibody, V domains shown)
VH: QVQLVQSGAELKKPGASVKLSCKASGYTFTDYYINWVKQAPGKGLEWIARIYPGSGNTYYNEKFKGRATLTAEKSTSTAYMQLSSLRSEDSAVYFCARGVYYFDYWGQGTTVTVSS
VL: DIVMTQSPSSLSASVGDRVTITCKASQNVRTNVAWYQQKPGKAPKALIYSASYRYSGVPDRFTGSGSGTDFTLTISSLQPEDFADYFCQQYNSYPRTFGGGTKVEIK
As for B11, the Relative binding activity in experiment [1] is 0.7 relative to chimeric antibody 37C (normalized EC50); in experiment [2], 1.15 relative to chimeric antibody 37C (normalized EC50).

B12: Hum5 (antibody, V domains shown)
VH: QVQLVQSGAEVKKPGASVKVSCKASGYTFTDYYINWVRQAPGKGLEWIARIYPGSGNTYYNEKFKGRVTITADKSTSTAYMELSSLRSEDTAVYFCARGVYYFDYWGQGTTVTVSS
VL: DIVMTQSPSFLSASVGDRVTITCKASQNVRTNVAWYQQKPGKAPKALIYSASYRYSGVPDRFTGSGSGTDFTLTISSLQSEDFADYFCQQYNSYPRTFGGGTKVEIK
With B12, in experiment [1], the Relative binding activity is 0.93 relative to chimeric antibody 37C (normalized EC50).

B13: Hum12 (antibody, V domains shown)
VH: QVQLVQSGAEVKKPGASVKLSCKASGYTFTDYYINWVKQAPGKGLEWIARIYPGSGNTYYNEKFKGRATLTAEKSTSTAYMQLSSLRSEDTAVYFCARGVYYFDYWGQGTTVTVSS
VL: DIVMTQSPSSLSASVGDRVTITCKASQNVRTNVAWYQQKPGKAPKALIYSASYRYSGVPDRFSGSGSGTDFTLTISSLQPEDFADYFCQQYNSYPRTFGGGTKVEIK
In the case of B13, the Relative binding activity was 0.72 relative to chimeric antibody 37C (normalized EC50) in experiment [1] and 1.23 relative to chimeric antibody 37C (normalized EC50) in experiment [2].
